Substitutions are numbered along the chain they refer to. Values belong to the binder of their own block, whether it stands above or below them.
Key:
[1] = target: cellular BACE1 in CHOK1-huAPP cells; assay: cell-based or functional assay
[2] = target: T1, recombinant BACE1 (BACE1 extracellular domain, R&D Systems Cat#931-AS) (UniProt P56817 22-457); assay: SPR Biacore T200, IgG captured, BACE1 analyte
T1 construct: extracellular domain; also called BACE1 extracellular domain protein
Description: The affinity of chimeric IgG antibodies for recombinant BACE1 was determined by surface plasmon resonance using a Biacore™ T200 instrument. Biacore™ Series S CMS sensor chips were immobilized with monoclonal mouse anti-human IgG (Fc) antibody (e.g., using a human antibody capture kit from GE Healthcare). 1 μg/mL of antibody was captured for 1 minute on each flow cell and serial 3-fold dilutions of recombinant BACE1 were injected at a flow rate of 30 μL/min. Each sample was analyzed with a 3-minute association and a 10-minute dissociation. After each injection, the chip was regenerated using 3M MgCl₂. Binding response was corrected by subtracting the RU from a flow cell capturing an irrelevant IgG at similar density. A 1:1 Langmuir model of simultaneous fitting of kₒₙ and koff was used for analysis of kinetics.

human TfR = target: T2, human TfR (human, UniProt P02786 89-760, limits assumed); assay: soft-randomization libraries selected on TfR
T2 construct: Protein coated on ELISA plates; also called human transferrin receptor protein 1

[3] = target: cellular BACE1 in CHOK1-huAPP cells; assay: cell-based or functional assay; remark: listed apart in the source
[4] = target: T1, recombinant BACE1 (BACE1 extracellular …); assay: SPR Biacore 8K, antibody captured, BACE1 analyte
Description: (§1) The binding affinities of the affinity matured humanized 2H8 variants for BACE1 were determined by surface plasmon resonance using a Biacore™ 8K instrument. […] The binding was monitored for 300 seconds and then dissociation was monitored for 600+ seconds in HBS-EP+ running buffer (GE Healthcare Life Sciences, BR100669). Binding response was corrected by subtracting the RU from a blank flow cell. A 1:1 Langmuir model of simultaneous fitting of kₒₙ and koff was used for kinetics analysis.

[5] = target: T1, recombinant BACE1 (BACE1 extracellular …); assay: SPR Biacore
[6] = target: T1, recombinant BACE1 (BACE1 extracellular …); assay: SPR Biacore 8K, antibody captured, BACE1 analyte; remark: listed apart in the source
Description: as §1

T1 sequence (P56817 22-457): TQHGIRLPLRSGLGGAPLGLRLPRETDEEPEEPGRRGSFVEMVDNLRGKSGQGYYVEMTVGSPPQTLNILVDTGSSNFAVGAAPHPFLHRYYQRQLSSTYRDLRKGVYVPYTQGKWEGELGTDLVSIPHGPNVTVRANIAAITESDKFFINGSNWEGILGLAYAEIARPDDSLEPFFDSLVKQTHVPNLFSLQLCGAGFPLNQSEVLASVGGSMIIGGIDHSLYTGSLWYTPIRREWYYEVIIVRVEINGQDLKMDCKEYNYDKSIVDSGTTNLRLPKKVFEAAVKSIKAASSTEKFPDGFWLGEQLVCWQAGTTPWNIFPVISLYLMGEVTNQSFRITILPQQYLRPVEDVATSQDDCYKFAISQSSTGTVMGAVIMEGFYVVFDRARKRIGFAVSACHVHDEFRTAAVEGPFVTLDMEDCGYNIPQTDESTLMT
T2 sequence (P02786 89-760 limits assumed): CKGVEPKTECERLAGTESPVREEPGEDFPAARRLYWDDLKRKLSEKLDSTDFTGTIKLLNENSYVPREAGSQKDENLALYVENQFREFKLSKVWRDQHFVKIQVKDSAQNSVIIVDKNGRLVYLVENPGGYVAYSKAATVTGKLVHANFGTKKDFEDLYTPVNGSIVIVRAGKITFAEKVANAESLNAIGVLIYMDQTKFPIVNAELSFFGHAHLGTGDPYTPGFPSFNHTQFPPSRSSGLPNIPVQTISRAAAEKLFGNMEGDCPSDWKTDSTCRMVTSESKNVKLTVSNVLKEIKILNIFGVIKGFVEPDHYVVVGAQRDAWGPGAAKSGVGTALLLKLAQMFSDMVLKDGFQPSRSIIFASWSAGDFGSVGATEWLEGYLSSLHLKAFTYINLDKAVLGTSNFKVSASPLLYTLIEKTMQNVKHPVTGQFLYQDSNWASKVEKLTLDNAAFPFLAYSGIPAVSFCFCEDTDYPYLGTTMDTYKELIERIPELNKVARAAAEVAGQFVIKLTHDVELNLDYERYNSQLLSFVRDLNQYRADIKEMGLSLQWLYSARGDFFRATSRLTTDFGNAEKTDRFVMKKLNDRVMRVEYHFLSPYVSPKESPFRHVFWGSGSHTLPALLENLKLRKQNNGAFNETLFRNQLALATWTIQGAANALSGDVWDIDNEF

B1: 3C11 (antibody, human IgG1, V domains shown)
VH: EVQLQQSGADLMKPGASVKLSCKATGYTFTGYWIEWVKQRPGHGLEWIGEIFPGSVSTNYNEKFKGKATFTADTSSNTAYMQLSSLTTEDSAIYYCARSPIYYDYADYWGQGTTLTVSS
VL: DIVLSQSHKFMSTSVGDRVSITCKASQDVGTAVAWYQQKPGQSPKALIYLASNRHTGVPDRFTGSGSGTDFTLTISNVQSEDLAEYFCQQYNSYPYTFGGGTRLEIK
notes: chimeric, human IgG1/kappa; also called Clone 3C11
% Max Inhibition [1]: 56%
Cellular IC50 [1]: 36 nM
Kd [2]: 61 nM
koff [2]: 0.0013 s⁻¹
kon [2]: 21000 M⁻¹ s⁻¹

B2: Clone CH3C.21 (designed binder)
chain: APELLGGPSVFLFPPKPKDTLMISRTPEVTCVVVDVSHEDPEVKFNWYVDGVEVHNAKTKPREEQYNSTYRVVSVLTVLHQDWLNGKEYKCKVSNKALPAPIEKTISKAKGQPREPQVYTLPPSRDELTKNQVSLTCLVKGFYPSDIAVEWESLGLVWVGYKTTPPVLDSDGSFFLYSKLTVPKSTWQQGWVFSCSVMHEALHNHYTQKSLSLSPGK
notes: modified Fc polypeptide
binding result (human TfR): binds

B3: Clone CH3C.17 (designed binder)
chain: B2 chain with L154Y, L156T, V159S, G160K, P183S, T186E, W191F
notes: modified Fc polypeptide
binding result (human TfR): binds

B4: Clone CH3C.44 (designed binder)
chain: B2 chain with L154Y, L156T, V157E, V159S, G160N, P183S, T186E, W191F
notes: modified Fc polypeptide
binding result (human TfR): binds

B5: Clone CH3C.34 (designed binder)
chain: B2 chain with G160F, Y161S
notes: modified Fc polypeptide
binding result (human TfR): binds

B6: Clone CH3C.51 (designed binder)
chain: B2 chain with L156H, P183S, T186E
notes: modified Fc polypeptide
binding result (human TfR): binds

B7: Clone CH3C.25 (designed binder)
chain: B2 chain with L154M, L156H, P183D
notes: modified Fc polypeptide
binding result (human TfR): binds

B8: 4A4 (antibody, human IgG1, V domains shown)
VH: EVKLMESGPGLVAPSQSLSITCTVSGFSLTSYPINWVRQPPGKGLEWLGVIWTGGSTNYNSALKSRLSISRDNSKSQVFLKMNSLQTDDTARYYCARWDGYFGAFDYWGQGTTVTVSS
VL: DIVMTQTTSSLSASLGDRVTISCRASQDISKYLNWYQQKPDGTVKLLIYYTSRLHSGVPSRFSGSGSGTDYSLTISNLEQEDIATYFCQQSLSLPYTFGGGTRLEIK
notes: chimeric, human IgG1/kappa; also called Clone 4A4
% Max Inhibition [1]: 53%
Cellular IC50 [1]: 17 nM
Kd [2]: 15 nM
koff [2]: 0.0012 s⁻¹
kon [2]: 83000 M⁻¹ s⁻¹

B9: 1D7 (antibody, human IgG1, V domains shown)
VH: EVKLMESGPGLVAPSQSLSISCTVSGFSLTSYGVDWVRQPPGKGLEWLGVVWGGGSTNYNSALMSRLSISKDNSKSQVFLKMNSLQTDDTAMYYCAKRDYFGGLNVWGTGTTVTVSS
VL: B8 VL with S10P, A13V, K39R, Q89H, S91G, L92H, S93K, L94I, R103K, I106L
notes: chimeric, human IgG1/kappa; also called Clone 1D7
% Max Inhibition [1]: 55%
Cellular IC50 [1]: 4 nM
Kd [2]: 16 nM
koff [2]: 0.00095 s⁻¹
kon [2]: 59000 M⁻¹ s⁻¹

B10: 1D2 (antibody, human IgG1, V domains shown)
VH: EVHVKQSGPELKKPGETVTISCKASGYTFTTYGMTWVRQAPGKDLEWMGWINTHSGVPIYADDFKGRFAFSLETSAGTAYLQINNLKNEDTATYFCTRRGRLGHYFDYWGQGTSVTVSS
VL: DIVMTQSQKFMSTSVGDRVSVTCKASQNVGTNVAWYQQKPGQSPKLLIYWASTRHTGVPDRFTGSGSGTDFTLTISNVQSEDLADYFCQQYSSYPYTFGGGTKLELK
notes: chimeric, human IgG1/kappa; also called Clone 1D2
% Max Inhibition [1]: 47%
Cellular IC50 [1]: 4 nM
Kd [2]: 3.1 nM
koff [2]: 0.00024 s⁻¹
kon [2]: 78000 M⁻¹ s⁻¹

B11: hu2H8v29 (antibody, V domains shown)
VH: QVQLVQSGAEVKKPGASVKVSCKASGYTFTNFWIHWVRQAPGQGLEWMGMIDPSDSYTKYNQKFKARATLTVDTSTSTVYMELSSLRSEDTAVYYCARSGVAFPYWGQGTLVTVSS
VL: DIQMTQSPSSLSASVGDRVTITCKASQDVGRNVAWYQQKPGKSPKSLIYSASHRYSGVPSRFSGSGSGTDFTLTISSLQPEDFATYFCQQYNSYPYTFGQGTKVEIK
notes: humanized; also called hu2H8_HC6 + hu2H8_LC5
IC50 [3]: 14.8 nM
Max. % inhibition [3]: 86%
Kd [4]: 9.21 nM
Kd [5]: 12 nM
Kd [6]: 9.21 nM

B17: hu2H8v27 (antibody, V domains shown)
VH: B11 VH with V37L, A68V, L70M, V79T
VL: B11 VL
notes: humanized; also called hu2H8_HC3 + hu2H8_LC5
IC50 [3]: 16.5 nM
Max. % inhibition [3]: 85%
Kd [5]: 12.8 nM

B19: hu2H8v29.1 (antibody, V domains shown)
VH: B11 VH
VL: B11 VL with R54Y
notes: captured via human Fc; also called hu2H8_HC6 + hu2H8_LC5.1
Kd [6]: 7.22 nM

B22: hu2H8v17 (antibody, V domains shown)
VH: B11 VH
VL: B11 VL with S43A, F87Y
notes: humanized; also called hu2H8_HC6 + hu2H8_LC3
IC50 [3]: 22.1 nM
Max. % inhibition [3]: 91%
Kd [5]: 12.1 nM

B25: 1F1 (antibody, human IgG1, V domains shown)
VH: EVQLQQSGAELMKPGASVKLSCKATGYTFIGYWIDWVKQRPGHGLEWIGEILPGGGSTNHNEKFKGKATFTTDTSSNTVYMQLSSLTTEDSAIYYCAREGSYGNYYFDYWGQGTSVTVSS
VL: DIQMTQTPLSLPVSLGDQASISCRSSQSIVHSNGNTYLEWYLQKPGQSPKLLIYKVSNRFSGVPDRFSGSGSGTDFTLKISRVEAEDLGVYYCFQGSHVPYTFGGGTKLEIK
notes: chimeric, human IgG1/kappa; also called Clone 1F1
% Max Inhibition [1]: 63%
Cellular IC50 [1]: 11 nM
Kd [2]: 5 nM
koff [2]: 0.00024 s⁻¹
kon [2]: 49000 M⁻¹ s⁻¹

B26: 2E1 (antibody, human IgG1, V domains shown)
VH: EVQLQQPGTELVRPGTSVKLSCKASGYTFTNFWMHWVKQRPGQGLEWIGVINPSDTYTKFNQKFRGKATLTVDTSSSTAYMQLSSLTSEDSAVYFCARPTVGLDYWGQGTSVTVSS
VL: DIVMTQSQKFMPTSVGDRVSVTCKASQNVGSNVAWYQQKSGQSPKALIYSASHRYSGVPDRFTGSGSGTDFTLTISNVQSEDLAEYFCQQYNSYPYTFGGGTKLEIK
notes: chimeric, human IgG1/kappa; also called Clone 2E1
% Max Inhibition [1]: 63%
Cellular IC50 [1]: 34 nM
Kd [2]: 71 nM
koff [2]: 0.0013 s⁻¹
kon [2]: 18000 M⁻¹ s⁻¹

B27: 4H10 (antibody, human IgG1, V domains shown)
VH: EIQLQQSGPELKKPGETVKISCKTSGYTFTTYGMTWVKQAPGKGLKWMGWINTYSGVPIYADDFKGRSAFSLETSASTAYLQINNLENEDTATYFCARRGSTAHYFDYWGQGTTVTVSS
VL: DIVLTQSHKFMSTSVGDRVSITCKASQDVSTAVAWYQQKPGQSPKLLIYWASTRHTGVPDRFTGSGSGTDYTLTISSVQAEDLALYYCQQHYSTPYTFGGGTKLELK
notes: chimeric, human IgG1/kappa; also called Clone 4H10
% Max Inhibition [1]: 46%
Cellular IC50 [1]: 18 nM
Kd [2]: 23 nM
koff [2]: 0.0022 s⁻¹
kon [2]: 96000 M⁻¹ s⁻¹

Other lines, results leading:

Kd [6]: 11 nM
B12: hu2H8v29.9 (antibody, V domains shown)
VH: B11 VH
VL: B11 VL with S93A
notes: captured via human Fc; also called hu2H8_HC6 + hu2H8_LC5.9

Kd [6]: 6.53 nM
B13: hu2H8v29.4 (antibody, V domains shown)
VH: B11 VH
VL: B11 VL with R54Q
notes: captured via human Fc; also called hu2H8_HC6 + hu2H8_LC5.4

Kd [6]: 8.16 nM
B14: hu2H8v29.2 (antibody, V domains shown)
VH: B11 VH
VL: B11 VL with R54N
notes: captured via human Fc; also called hu2H8_HC6 + hu2H8_LC5.2

Kd [6]: 4.99 nM
B15: hu2H8v29.7 (antibody, V domains shown)
VH: B11 VH
VL: B11 VL with N92S
notes: captured via human Fc; also called hu2H8_HC6 + hu2H8_LC5.7

Kd [6]: 6.93 nM
B16: hu2H8v29.3 (antibody, V domains shown)
VH: B11 VH
VL: B11 VL with R54M
notes: captured via human Fc; also called hu2H8_HC6 + hu2H8_LC5.3

Kd [6]: 8.21 nM
B18: hu2H8v29.5 (antibody, V domains shown)
VH: B11 VH
VL: B11 VL with R54K
notes: captured via human Fc; also called hu2H8_HC6 + hu2H8_LC5.5

Kd [6]: 4.84 nM
B20: hu2H8v29.10 (antibody, V domains shown)
VH: B11 VH
VL: B11 VL with N92Y
notes: captured via human Fc; also called hu2H8_HC6 + hu2H8_LC5.10

Kd [6]: 8.1 nM
B21: hu2H8v29.8 (antibody, V domains shown)
VH: B11 VH
VL: B11 VL with N92Q
notes: captured via human Fc; also called hu2H8_HC6 + hu2H8_LC5.8

Kd [6]: 4.83 nM
B23: hu2H8v29.11 (antibody, V domains shown)
VH: B11 VH
VL: B11 VL with N92Y, P95A
notes: captured via human Fc; also called hu2H8_HC6 + hu2H8_LC5.11

Kd [6]: 7.51 nM
B24: hu2H8v29.6 (antibody, V domains shown)
VH: B11 VH
VL: B11 VL with R54L
notes: captured via human Fc; also called hu2H8_HC6 + hu2H8_LC5.6

From patent US20210070881A1 (DENALI THERAPEUTICS, published 2021)
